Results: article PMC5314766

What was measured:
Test in all cases: fluorescence polarization
[1] = molecular target: Exo11(44exo-/6exo-) Lassoless (Saccharomyces cerevisiae, UniProt Q12149;Q08162;P46948;Q12277;P25359;Q05636;P53256;P48240;P38792;Q08285;P53859 …, D238N;D551N)
[2] = molecular target: T1, Rrp6 Lassoless, catalytically dead (Saccharomyces cerevisiae, UniProt Q12149 128-634, D238N)
T1 sequence: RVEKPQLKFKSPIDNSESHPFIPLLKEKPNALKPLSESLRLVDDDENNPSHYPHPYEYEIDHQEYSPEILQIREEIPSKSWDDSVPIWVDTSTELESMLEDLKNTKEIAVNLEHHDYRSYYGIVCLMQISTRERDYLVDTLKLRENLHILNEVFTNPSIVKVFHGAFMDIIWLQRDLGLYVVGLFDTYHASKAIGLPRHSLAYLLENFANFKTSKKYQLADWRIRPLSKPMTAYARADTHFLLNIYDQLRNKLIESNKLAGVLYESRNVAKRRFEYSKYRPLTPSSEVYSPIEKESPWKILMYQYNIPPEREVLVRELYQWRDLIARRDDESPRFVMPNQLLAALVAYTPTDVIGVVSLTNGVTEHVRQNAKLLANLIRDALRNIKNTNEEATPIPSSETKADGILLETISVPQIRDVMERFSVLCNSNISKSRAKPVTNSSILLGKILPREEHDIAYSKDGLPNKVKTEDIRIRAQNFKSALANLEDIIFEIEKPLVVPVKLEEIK

[3] = molecular target: T2, Rrp6 Lasso (CTD intact), catalytically dead (Saccharomyces cerevisiae, UniProt Q12149 128-733, D238N)
T2 sequence: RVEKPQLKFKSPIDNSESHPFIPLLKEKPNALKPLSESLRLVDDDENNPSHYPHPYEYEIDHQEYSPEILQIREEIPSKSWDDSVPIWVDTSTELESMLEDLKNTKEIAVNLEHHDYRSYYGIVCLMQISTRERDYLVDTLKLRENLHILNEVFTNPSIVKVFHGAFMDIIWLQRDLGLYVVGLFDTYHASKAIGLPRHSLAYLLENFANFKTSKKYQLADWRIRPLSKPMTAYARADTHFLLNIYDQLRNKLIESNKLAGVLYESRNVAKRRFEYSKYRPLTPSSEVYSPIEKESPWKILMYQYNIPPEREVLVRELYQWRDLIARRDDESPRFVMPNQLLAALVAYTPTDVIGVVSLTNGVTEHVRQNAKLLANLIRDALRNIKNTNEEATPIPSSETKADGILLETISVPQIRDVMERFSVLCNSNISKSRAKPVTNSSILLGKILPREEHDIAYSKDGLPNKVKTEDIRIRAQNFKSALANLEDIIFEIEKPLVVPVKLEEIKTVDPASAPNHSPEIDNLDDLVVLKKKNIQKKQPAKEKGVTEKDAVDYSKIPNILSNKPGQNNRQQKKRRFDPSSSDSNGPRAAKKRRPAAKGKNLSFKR

[4] = molecular target: T3, Rrp6 EARless, catalytically dead (Saccharomyces cerevisiae, UniProt Q12149 128-733, D238N;del517-617)
T3 sequence: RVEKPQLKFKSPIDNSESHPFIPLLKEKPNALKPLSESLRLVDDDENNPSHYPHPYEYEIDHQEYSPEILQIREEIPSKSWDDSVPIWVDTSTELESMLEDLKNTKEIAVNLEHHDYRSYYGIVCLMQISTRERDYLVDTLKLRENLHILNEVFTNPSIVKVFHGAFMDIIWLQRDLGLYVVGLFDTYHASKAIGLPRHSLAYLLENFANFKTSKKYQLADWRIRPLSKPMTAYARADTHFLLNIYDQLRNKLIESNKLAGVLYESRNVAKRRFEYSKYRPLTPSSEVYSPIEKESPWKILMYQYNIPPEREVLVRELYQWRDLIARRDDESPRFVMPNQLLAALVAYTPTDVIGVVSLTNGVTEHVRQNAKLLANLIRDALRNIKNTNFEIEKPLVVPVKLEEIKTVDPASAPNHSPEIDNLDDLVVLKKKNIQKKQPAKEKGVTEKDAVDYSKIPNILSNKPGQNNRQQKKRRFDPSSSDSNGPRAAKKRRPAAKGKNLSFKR

[5] = molecular target: Exo10(6exo-) Partial lasso (Saccharomyces cerevisiae, UniProt Q12149;P46948;Q12277;P25359;Q05636;P53256;P48240;P38792;Q08285;P53859 …, D238N)
[6] = molecular target: Exo10(6exo-) Lassoless (Saccharomyces cerevisiae, UniProt Q12149;P46948;Q12277;P25359;Q05636;P53256;P48240;P38792;Q08285;P53859 …, D238N)
[7] = molecular target: Exo10(6exo-) Lasso (Saccharomyces cerevisiae, UniProt Q12149;P46948;Q12277;P25359;Q05636;P53256;P48240;P38792;Q08285;P53859 …, D238N)

With AAAAAAAAAAAAAAAAAAAAAAAAAAAAAAAAAAAAA (ssRNA) [37 nt polyA RNA] the binding signal [1] was 6 fold weaker than P9, the binding signal [2] was 4 fold weaker than lasso-containing (P3) and the binding signal [3] was 4 fold tighter than lassoless (P4). The binding signal [4] was 6 fold tighter than lassoless (P4), the binding signal [5] was over 15 fold weaker than P6 and the binding signal [6] was over 15 fold weaker than P6.

AUUAUUUAUUUAUUAUUAUUUAUU (ssRNA) [AU-rich RNA 24 nt]: binds [7].
